Experimental data from publication PMC2765250 (Vaccine, 2009).

Target: purified rhesus macaque MHC class I molecule Mamu-B*17 with human beta2-microglobulin (rhesus macaque | human)
Experiment: radioligand binding

Binder: LTIEAIENYF [VACV-WR peptide 71NP (LTIEAIENYF), ORF L4R]
- IC50: 8.77 µM

Binder: SSPLELFML [VACV-WR peptide 51P (SSPLELFML), ORF E9L]
- IC50: 11.8 µM
